Reference: patent US20260193293A1, “PEPTIDES CAPABLE OF INHIBITING PROTEIN-PROTEIN INTERACTIONS AT GABAB1A SUBUNIT AND USES THEREOF” (UNIVERSITY OF COPENHAGEN, priority 2022, published 2026)
Non-standard residues stand in square brackets, D forms with d. NMeW = CN[C@@H](Cc1c[nH]c2ccccc12)C(=O)O; NMeR = CN[C@@H](CCCNC(=N)N)C(=O)O; NMeI = CC[C@H](C)[C@H](NC)C(=O)O; NMeT = CN[C@H](C(=O)O)[C@@H](C)O; NMeE = CN[C@@H](CCC(=O)O)C(=O)O; NMeV = CN[C@H](C(=O)O)C(C)C; NMeS = CN[C@@H](CO)C(=O)O; NMeA = CN[C@@H](C)C(=O)O; Sar = CNCC(=O)O

Molecular target: Sushi domains (SD1/2) protein of the GABAB1a (GB1a) subunit, recombinant
Assay: FP competition

Sequence of Sushi domains (SD1/2) protein of the GABAB1a (GB1a) subunit, recombinant (Q9Z0U4 29-158): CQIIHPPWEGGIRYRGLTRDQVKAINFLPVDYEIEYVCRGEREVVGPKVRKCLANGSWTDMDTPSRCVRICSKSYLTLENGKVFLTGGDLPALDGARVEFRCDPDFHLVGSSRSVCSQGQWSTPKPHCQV

| Ki | Binder |
| --- | --- |
| 605 nM | Ac-PWAIVWGPTVS[dR]ED-NH2 […rED] |
| 1500 nM | Ac-PWAIVWGATVSRED-NH2 |
| 552 nM | Ac-PWAIVWGPTV[dS]RED-NH2 […sRED] |
| 636 nM | Ac-PWAIV[NMeW]GPTVSRED-NH2 (SMILES CC[C@H](C)[C@H](NC(=O)[C@H](C)NC(=O)[C@H](Cc1c[nH]c2ccccc12)NC(=O)[C@@H]1CCCN1C(C)=O)C(=O)N[C@H](C(=O)N(C)[C@@H](Cc1c[nH]c2ccccc12)C(=O)NCC(=O)N1CCC[C@H]1C(=O)N[C@H](C(=O)N[C@H](C(=O)N[C@@H](CO)C(=O)N[C@@H](CCCNC(=N)N)C(=O)N[C@@H](CCC(=O)O)C(=O)N[C@@H](CC(=O)O)C(N)=O)C(C)C)[C@@H](C)O)C(C)C) [PWAIV(N-Me-W)GPTVSRED] |
| 911 nM | Ac-PAAIVWGPTVSRED-NH2 |
| 1300 nM | Ac-PWAIVWGP[dT]VSRED-NH2 [PWAIVWGPtVSRED] |
| 14100 nM | Ac-PW[dA]IVWGPTVSRED-NH2 [PWa…] |
| 7230 nM | Ac-PW[NMeA]IVWGPTVSRED-NH2 (SMILES CC[C@H](C)[C@H](NC(=O)[C@H](C)N(C)C(=O)[C@H](Cc1c[nH]c2ccccc12)NC(=O)[C@@H]1CCCN1C(C)=O)C(=O)N[C@H](C(=O)N[C@@H](Cc1c[nH]c2ccccc12)C(=O)NCC(=O)N1CCC[C@H]1C(=O)N[C@H](C(=O)N[C@H](C(=O)N[C@@H](CO)C(=O)N[C@@H](CCCNC(=N)N)C(=O)N[C@@H](CCC(=O)O)C(=O)N[C@@H](CC(=O)O)C(N)=O)C(C)C)[C@@H](C)O)C(C)C) [PW(N-Me-A)…] |
| 46600 nM | Ac-PWAAVWGPTVSRED-NH2 |
| 6860 nM | Ac-PWAIVWG[dP]TVSRED-NH2 [PWAIVWGpTVSRED] |
| 1030 nM | Ac-PWAIVWGPAVSRED-NH2 |
| 1260 nM | Ac-PWAIVWGP[NMeT]VSRED-NH2 (SMILES CC[C@H](C)[C@H](NC(=O)[C@H](C)NC(=O)[C@H](Cc1c[nH]c2ccccc12)NC(=O)[C@@H]1CCCN1C(C)=O)C(=O)N[C@H](C(=O)N[C@@H](Cc1c[nH]c2ccccc12)C(=O)NCC(=O)N1CCC[C@H]1C(=O)N(C)[C@H](C(=O)N[C@H](C(=O)N[C@@H](CO)C(=O)N[C@@H](CCCNC(=N)N)C(=O)N[C@@H](CCC(=O)O)C(=O)N[C@@H](CC(=O)O)C(N)=O)C(C)C)[C@@H](C)O)C(C)C) [PWAIVWGP(N-Me-T)VSRED] |
| 341 nM | Ac-PWAIVWGPTVSAED-NH2 |
| 1230 nM | Ac-P[dW]AIVWGPTVSRED-NH2 [Pw…] |
| 502 nM | Ac-PWAIVWGPTVS[NMeR]ED-NH2 (SMILES CC[C@H](C)[C@H](NC(=O)[C@H](C)NC(=O)[C@H](Cc1c[nH]c2ccccc12)NC(=O)[C@@H]1CCCN1C(C)=O)C(=O)N[C@H](C(=O)N[C@@H](Cc1c[nH]c2ccccc12)C(=O)NCC(=O)N1CCC[C@H]1C(=O)N[C@H](C(=O)N[C@H](C(=O)N[C@@H](CO)C(=O)N(C)[C@@H](CCCNC(=N)N)C(=O)N[C@@H](CCC(=O)O)C(=O)N[C@@H](CC(=O)O)C(N)=O)C(C)C)[C@@H](C)O)C(C)C) […(N-Me-R)ED] |
| 370 nM | Ac-PWA[NMeI]VWGPTVSRED-NH2 (SMILES CC[C@H](C)[C@@H](C(=O)N[C@H](C(=O)N[C@@H](Cc1c[nH]c2ccccc12)C(=O)NCC(=O)N1CCC[C@H]1C(=O)N[C@H](C(=O)N[C@H](C(=O)N[C@@H](CO)C(=O)N[C@@H](CCCNC(=N)N)C(=O)N[C@@H](CCC(=O)O)C(=O)N[C@@H](CC(=O)O)C(N)=O)C(C)C)[C@@H](C)O)C(C)C)N(C)C(=O)[C@H](C)NC(=O)[C@H](Cc1c[nH]c2ccccc12)NC(=O)[C@@H]1CCCN1C(C)=O) [PWA(N-Me-I)…] |
| 600 nM | Ac-PWAIVWGPTVSRAD-NH2 |
| 877 nM | Ac-PWAIVWAPTVSRED-NH2 |
| 318 nM | Ac-PWAIVWGPTASRED-NH2 |
| 686 nM | Ac-PWAIVWGPT[dV]SRED-NH2 […vSRED] |
| 1780 nM | Ac-PWAIVWGPT[NMeV]SRED-NH2 (SMILES CC[C@H](C)[C@H](NC(=O)[C@H](C)NC(=O)[C@H](Cc1c[nH]c2ccccc12)NC(=O)[C@@H]1CCCN1C(C)=O)C(=O)N[C@H](C(=O)N[C@@H](Cc1c[nH]c2ccccc12)C(=O)NCC(=O)N1CCC[C@H]1C(=O)N[C@H](C(=O)N(C)[C@H](C(=O)N[C@@H](CO)C(=O)N[C@@H](CCCNC(=N)N)C(=O)N[C@@H](CCC(=O)O)C(=O)N[C@@H](CC(=O)O)C(N)=O)C(C)C)[C@@H](C)O)C(C)C) […(N-Me-V)SRED] |
| 7000 nM | Ac-PWAI[NMeV]WGPTVSRED-NH2 (SMILES CC[C@H](C)[C@H](NC(=O)[C@H](C)NC(=O)[C@H](Cc1c[nH]c2ccccc12)NC(=O)[C@@H]1CCCN1C(C)=O)C(=O)N(C)[C@H](C(=O)N[C@@H](Cc1c[nH]c2ccccc12)C(=O)NCC(=O)N1CCC[C@H]1C(=O)N[C@H](C(=O)N[C@H](C(=O)N[C@@H](CO)C(=O)N[C@@H](CCCNC(=N)N)C(=O)N[C@@H](CCC(=O)O)C(=O)N[C@@H](CC(=O)O)C(N)=O)C(C)C)[C@@H](C)O)C(C)C) [PWAI(N-Me-V)…] |
| 572 nM | Ac-PWAIVWGPTVSREA-NH2 |
| 18100 nM | Ac-PWAIVW[dA]PTVSRED-NH2 [PWAIVWaPTVSRED] |
| 833 nM | Ac-P[NMeW]AIVWGPTVSRED-NH2 (SMILES CC[C@H](C)[C@H](NC(=O)[C@H](C)NC(=O)[C@H](Cc1c[nH]c2ccccc12)N(C)C(=O)[C@@H]1CCCN1C(C)=O)C(=O)N[C@H](C(=O)N[C@@H](Cc1c[nH]c2ccccc12)C(=O)NCC(=O)N1CCC[C@H]1C(=O)N[C@H](C(=O)N[C@H](C(=O)N[C@@H](CO)C(=O)N[C@@H](CCCNC(=N)N)C(=O)N[C@@H](CCC(=O)O)C(=O)N[C@@H](CC(=O)O)C(N)=O)C(C)C)[C@@H](C)O)C(C)C) [P(N-Me-W)…] |
| 1040 nM | Ac-PWAIVWGPTV[NMeS]RED-NH2 (SMILES CC[C@H](C)[C@H](NC(=O)[C@H](C)NC(=O)[C@H](Cc1c[nH]c2ccccc12)NC(=O)[C@@H]1CCCN1C(C)=O)C(=O)N[C@H](C(=O)N[C@@H](Cc1c[nH]c2ccccc12)C(=O)NCC(=O)N1CCC[C@H]1C(=O)N[C@H](C(=O)N[C@H](C(=O)N(C)[C@@H](CO)C(=O)N[C@@H](CCCNC(=N)N)C(=O)N[C@@H](CCC(=O)O)C(=O)N[C@@H](CC(=O)O)C(N)=O)C(C)C)[C@@H](C)O)C(C)C) […(N-Me-S)RED] |
| 523 nM | Ac-PWAIVWGPTVSR[NMeE]D-NH2 (SMILES CC[C@H](C)[C@H](NC(=O)[C@H](C)NC(=O)[C@H](Cc1c[nH]c2ccccc12)NC(=O)[C@@H]1CCCN1C(C)=O)C(=O)N[C@H](C(=O)N[C@@H](Cc1c[nH]c2ccccc12)C(=O)NCC(=O)N1CCC[C@H]1C(=O)N[C@H](C(=O)N[C@H](C(=O)N[C@@H](CO)C(=O)N[C@@H](CCCNC(=N)N)C(=O)N(C)[C@@H](CCC(=O)O)C(=O)N[C@@H](CC(=O)O)C(N)=O)C(C)C)[C@@H](C)O)C(C)C) […(N-Me-E)D] |
| 555 nM | Ac-[dP]WAIVWGPTVSRED-NH2 (SMILES CC[C@H](C)[C@H](NC(=O)[C@H](C)NC(=O)[C@H](Cc1c[nH]c2ccccc12)NC(=O)[C@H]1CCCN1C(C)=O)C(=O)N[C@H](C(=O)N[C@@H](Cc1c[nH]c2ccccc12)C(=O)NCC(=O)N1CCC[C@H]1C(=O)N[C@H](C(=O)N[C@H](C(=O)N[C@@H](CO)C(=O)N[C@@H](CCCNC(=N)N)C(=O)N[C@@H](CCC(=O)O)C(=O)N[C@@H](CC(=O)O)C(N)=O)C(C)C)[C@@H](C)O)C(C)C) [p…] |
| 480 nM | Ac-PWAIVWGPTVARED-NH2 |
| 58300 nM | Ac-PWAIVW[Sar]PTVSRED-NH2 (SMILES CC[C@H](C)[C@H](NC(=O)[C@H](C)NC(=O)[C@H](Cc1c[nH]c2ccccc12)NC(=O)[C@@H]1CCCN1C(C)=O)C(=O)N[C@H](C(=O)N[C@@H](Cc1c[nH]c2ccccc12)C(=O)N(C)CC(=O)N1CCC[C@H]1C(=O)N[C@H](C(=O)N[C@H](C(=O)N[C@@H](CO)C(=O)N[C@@H](CCCNC(=N)N)C(=O)N[C@@H](CCC(=O)O)C(=O)N[C@@H](CC(=O)O)C(N)=O)C(C)C)[C@@H](C)O)C(C)C) [PWAIVW(N-Me-G)PTVSRED] |
